The values below come from article PMC9915583 (bioRxiv, 2023).

To fix the notation:
B2: GLP (recombinant, full-length, untagged) (natural protein)
chain: MRSVEQQLSIVTEAAVAPEPVRIAIAEALGLMCAEEVQASRALPGFAQAAIDGYAVRAVDVGGEKSLSQQLPVAPPEKSLPVVGEVAAGSQQPLRLQPKQAVMVHTGAPLPMLADAVLPMAWSDRGRKRVTAQRPVRSGEFVRKEGDDIQPGDIAVSAGAVLGPAQIGLLAAVGRSKVLVYPRPRMSVISVGAELVDIDRQPGLGQVYDVNSYSLAAAGREAGADVYRYGIAAGEPRRIKEIIESQMLRSEIIVITGAVGGAGSAGVRQVLNELGDIDTERVAMHPGSVQGFGLLGENKIPCFLLPSNPVASLVIFETFVRPVVRMSLGKSNAARRVVRARALNHVVSVAGRKGFIRSRLMRDAETQDYLVEALGGATGAPSHLLAGLSEANGMIRIPEDVTEIRPGDVVDVIFLAQGR

Data set [1] addresses Biotinylated His-GLPR (C. glutamicum ATCC 13032). Kind of data set: BLI.
The target of data set [2] is B2. Kind of data set: BLI.
Data set [3] deals with the molecule itself. Kind of data set: crystal structure.
Data set [4] addresses T1, His-SUMO-FtsZ (C. glutamicum, UniProt P94337 1-442).
T1 sequence: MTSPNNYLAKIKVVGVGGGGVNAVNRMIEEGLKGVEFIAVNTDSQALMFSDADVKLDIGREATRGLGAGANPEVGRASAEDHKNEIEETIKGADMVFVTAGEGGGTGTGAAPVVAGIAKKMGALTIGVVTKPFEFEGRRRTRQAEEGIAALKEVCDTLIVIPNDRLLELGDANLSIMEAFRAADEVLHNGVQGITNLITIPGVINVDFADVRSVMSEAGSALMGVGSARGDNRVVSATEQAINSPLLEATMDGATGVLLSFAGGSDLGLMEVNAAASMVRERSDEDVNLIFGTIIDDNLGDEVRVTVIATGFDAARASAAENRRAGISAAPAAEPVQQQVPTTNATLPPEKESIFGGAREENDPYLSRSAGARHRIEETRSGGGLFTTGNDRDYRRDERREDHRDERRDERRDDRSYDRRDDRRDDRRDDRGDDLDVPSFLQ
Kind of data set: BLI.

In turn, “Wag31 (recombinant, full-length) (natural protein)” had a Kd in data set [1] of 43.4 µM.
“Wag31_(1–61) (N-terminal DivIVA domain of Wag31) (domain or fragment)”: the Kd in data set [1] is 14.9 µM.

B1: GLPR, C-terminal His-tagged (receptor)
chain: MLHVSGILVIGLIVVVWLVVLAPLLLRGQKPIAKAGEAFDDTRVISEGGSNIPSPRRPGLSSAQLDDEEDTDDVDDDYEIVDSPSIFRPRKEEPVEEDLDTDVELEEDIEVSLETDDYVEPAPVVEVSQEWNVEDHYELDDSYDTPLDHLHPAARARAYEDFQEHQPEQQPEVEEFDADDELTEEDVAFAQRRRGRGYYDPEADREFAASQYVRRQRTLLGLAATVVISVILGFVFGGWVWGLPAVALAATALYLMALRSQVREENALRARRIRRLRRSRMGVRNSEDLPSRLRRPGAVVLELDDESPDFEGLPTVAMPEEPYYEEPRRNIRHLGQRRVS
In the case of B1, the Kd in data set [2] amounted to 0.0055 µM.
For the molecule B2, the “stoichiometry N” value in data set [3] is 2. Further, binding in data set [4] was put at a Kd of 4.7 µM.
